# Reference: the supplement of paper PMC9112550, “Optimization of the antimicrobial peptide Bac7 by deep mutational scanning” (BMC Biology, 2022)
# Test system: Escherichia coli TOP10
# Experiment: shrunken log2 fold change of peptide-encoding DNA abundance (4.5 h post-induction vs induction); higher = less antimicrobial activity (less host growth inhibition)
# Conditions: time post-induction: 4.5 h; library: site-saturation at positions 5, 18, 19, 20
# 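Note: peptides expressed intracellularly from a pBAD plasmid library in pooled LB shake-flask culture, induced with 0.3% L-arabinose, DNA abundance read by NGS, three biological replicates, DESeq2 with apeglm shrinkage.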
row,Sequence,shrunken log2 fold change
1,RRIRVRPPRLPRPRPRPYIKPRP,-0.982
2,RRIRVRPPRLPRPRPRPYIVPRP,-0.00649
3,RRIRVRPPRLPRPRPRPYIYPRP,-0.806
4,RRIRVRPPRLPRPRPRPYKNPRP,-0.848
5,RRIRVRPPRLPRPRPRPYLCPRP,0.0235
6,RRIRVRPPRLPRPRPRPYLGPRP,-0.177
7,RRIRVRPPRLPRPRPRPYLLPRP,-0.357
8,RRIRVRPPRLPRPRPRPYLVPRP,-0.511
9,RRIRVRPPRLPRPRPRPYMIPRP,-0.904
10,RRIRVRPPRLPRPRPRPYMNPRP,-0.962
11,RRIRVRPPRLPRPRPRPYNAPRP,-0.521
12,RRIRVRPPRLPRPRPRPYNDPRP,-0.609
13,RRIRVRPPRLPRPRPRPYNLPRP,-0.414
14,RRIRVRPPRLPRPRPRPYNYPRP,-0.845
15,RRIRVRPPRLPRPRPRPYPAPRP,-0.715
16,RRIRVRPPRLPRPRPRPYPTPRP,-0.398
17,RRIRVRPPRLPRPRPRPYRCPRP,-0.0108
18,RRIRVRPPRLPRPRPRPYRHPRP,-1.08
19,RRIRVRPPRLPRPRPRPYRMPRP,-0.467
20,RRIRVRPPRLPRPRPRPYSWPRP,-0.163
21,RRIRVRPPRLPRPRPRPYTSPRP,-0.0679
22,RRIRVRPPRLPRPRPRPYVRPRP,-0.492

row,Sequence,shrunken log2 fold change
1,RRIRVRPPRLPRPRPRPYWKPRP,-0.074
2,RRIRVRPPRLPRPRPRPYWQPRP,-0.0663
3,RRIRVRPPRLPRPRPRPYYAPRP,-0.915
4,RRIRWRPPRLPRPRPRPACHPRP,0.442
5,RRIRWRPPRLPRPRPRPACPPRP,0.105
6,RRIRWRPPRLPRPRPRPADHPRP,0.193
7,RRIRWRPPRLPRPRPRPADKPRP,0.141
8,RRIRWRPPRLPRPRPRPAENPRP,0.568
9,RRIRWRPPRLPRPRPRPAFNPRP,-0.116
10,RRIRWRPPRLPRPRPRPAFWPRP,0.708
11,RRIRWRPPRLPRPRPRPAGNPRP,0.396
12,RRIRWRPPRLPRPRPRPAHDPRP,0.0987
13,RRIRWRPPRLPRPRPRPAHFPRP,0.141
14,RRIRWRPPRLPRPRPRPAHIPRP,-0.0509
15,RRIRWRPPRLPRPRPRPAHLPRP,0.15
16,RRIRWRPPRLPRPRPRPAHQPRP,0.176
17,RRIRWRPPRLPRPRPRPAHYPRP,-0.145
18,RRIRWRPPRLPRPRPRPAIEPRP,-0.04
19,RRIRWRPPRLPRPRPRPAIIPRP,-0.296
20,RRIRWRPPRLPRPRPRPAIKPRP,0.0964
21,RRIRWRPPRLPRPRPRPAILPRP,0.0915
22,RRIRWRPPRLPRPRPRPAKKPRP,0.0808

row,Sequence,shrunken log2 fold change
1,RRIRWRPPRLPRPRPRPAKWPRP,0.386
2,RRIRWRPPRLPRPRPRPAMWPRP,0.433
3,RRIRWRPPRLPRPRPRPANKPRP,-0.348
4,RRIRWRPPRLPRPRPRPAPIPRP,0.319
5,RRIRWRPPRLPRPRPRPAPNPRP,3.12
6,RRIRWRPPRLPRPRPRPAQFPRP,0.248
7,RRIRWRPPRLPRPRPRPAQQPRP,-0.00145
8,RRIRWRPPRLPRPRPRPATGPRP,0.0426
9,RRIRWRPPRLPRPRPRPATYPRP,0.0311
10,RRIRWRPPRLPRPRPRPAVRPRP,-0.0873
11,RRIRWRPPRLPRPRPRPAWEPRP,0.534
12,RRIRWRPPRLPRPRPRPAYHPRP,-0.361
13,RRIRWRPPRLPRPRPRPCAFPRP,0.176
14,RRIRWRPPRLPRPRPRPCCLPRP,0.00932
15,RRIRWRPPRLPRPRPRPCDLPRP,-0.286
16,RRIRWRPPRLPRPRPRPCEMPRP,0.0732
17,RRIRWRPPRLPRPRPRPCFDPRP,0.172
18,RRIRWRPPRLPRPRPRPCFEPRP,-0.0254
19,RRIRWRPPRLPRPRPRPCHSPRP,-0.286
20,RRIRWRPPRLPRPRPRPCHYPRP,-0.0893
21,RRIRWRPPRLPRPRPRPCIRPRP,-0.147
22,RRIRWRPPRLPRPRPRPCLHPRP,-0.01

row,Sequence,shrunken log2 fold change
1,RRIRWRPPRLPRPRPRPCLKPRP,0.0308
2,RRIRWRPPRLPRPRPRPCMQPRP,0.0574
3,RRIRWRPPRLPRPRPRPCMTPRP,0.317
4,RRIRWRPPRLPRPRPRPCPPPRP,-0.463
5,RRIRWRPPRLPRPRPRPCQDPRP,-0.0575
6,RRIRWRPPRLPRPRPRPCRPPRP,0.115
7,RRIRWRPPRLPRPRPRPCSDPRP,0.273
8,RRIRWRPPRLPRPRPRPCTIPRP,-0.138
9,RRIRWRPPRLPRPRPRPCVEPRP,0.153
10,RRIRWRPPRLPRPRPRPCVPPRP,-0.035
11,RRIRWRPPRLPRPRPRPCWCPRP,-0.215
12,RRIRWRPPRLPRPRPRPCWIPRP,-0.072
13,RRIRWRPPRLPRPRPRPCYHPRP,-0.123
14,RRIRWRPPRLPRPRPRPCYIPRP,-0.46
15,RRIRWRPPRLPRPRPRPDARPRP,-0.018
16,RRIRWRPPRLPRPRPRPDETPRP,0.0169
17,RRIRWRPPRLPRPRPRPDFEPRP,0.385
18,RRIRWRPPRLPRPRPRPDFQPRP,0.0985
19,RRIRWRPPRLPRPRPRPDGEPRP,0.0237
20,RRIRWRPPRLPRPRPRPDHEPRP,-0.0396
21,RRIRWRPPRLPRPRPRPDHVPRP,-0.13
22,RRIRWRPPRLPRPRPRPDIRPRP,-0.0808

row,Sequence,shrunken log2 fold change
1,RRIRWRPPRLPRPRPRPDKEPRP,0.0411
2,RRIRWRPPRLPRPRPRPDLQPRP,-0.0193
3,RRIRWRPPRLPRPRPRPDLRPRP,-0.00728
4,RRIRWRPPRLPRPRPRPDMMPRP,-0.0236
5,RRIRWRPPRLPRPRPRPDMNPRP,0.143
6,RRIRWRPPRLPRPRPRPDNGPRP,0.0563
7,RRIRWRPPRLPRPRPRPDNVPRP,-0.26
8,RRIRWRPPRLPRPRPRPDPVPRP,0.0369
9,RRIRWRPPRLPRPRPRPDRNPRP,0.0394
10,RRIRWRPPRLPRPRPRPDSCPRP,-0.0201
11,RRIRWRPPRLPRPRPRPDVCPRP,-0.0101
12,RRIRWRPPRLPRPRPRPDVFPRP,0.019
13,RRIRWRPPRLPRPRPRPDVGPRP,0.181
14,RRIRWRPPRLPRPRPRPDVWPRP,0.373
15,RRIRWRPPRLPRPRPRPDVYPRP,0.00123
16,RRIRWRPPRLPRPRPRPDWNPRP,0.0393
17,RRIRWRPPRLPRPRPRPDWVPRP,0.253
18,RRIRWRPPRLPRPRPRPDYKPRP,-0.0643
19,RRIRWRPPRLPRPRPRPDYNPRP,-0.288
20,RRIRWRPPRLPRPRPRPDYYPRP,-0.218
21,RRIRWRPPRLPRPRPRPEACPRP,1.5
